These results are taken from patent US20240398942A1 (CHIA TAI TIANQING PHARMACEUTICAL GROUP, published 2024).

Where two headings read alike, the source gives them in different places.

Usually Kd stands for the equilibrium constant for the complex coming apart. In general, koff refers to a measure of how fast the partners let go of each other. A word on the kon: it is a measure of how fast the partners come together. What is called IC50 is the concentration that inhibits the measured activity by half.

Assay [1] addresses T1, cynomolgus monkey CD40-his protein (Acro biosystems, Cat. No. CD0-C52H6) (cynomolgus monkey, UniProt G7PG38 21-193).
T1 construct: Bought protein; not shown: His tag
Kind of assay: SPR (Biacore T200), antibody captured, CD40-his as analyte, 1:1 fit. From the text: (§1) Briefly, a goat anti-human IgG (GE Healthcare, Cat. No. BR100839, human antibody capture kit) was covalently linked to a CM5 chip (GE Healthcare, Cat. No. BR100530, carboxymethylated dextran-coated chip) via the primary amine group using a standard amine coupling kit supplied by Biacore (GE Healthcare, Pittsburgh, PA, USA). Unreacted portions on the biosensor surface were blocked with ethanolamine. Then, the anti-CD40 antibody of the present application and two benchmark antibodies (BM1 (dacetuzumab, Genentech Inc., also referred to CD40-BM1, prepared in-house; the heavy and light chain amino acid sequences are set forth in SEQ ID NOs: 40 and 41, respectively) and BM2 (selicrelumab, Abgenix Inc., also referred to CD40-BM2, prepared in-house; the heavy and light chain amino acid sequences are set forth in SEQ ID NOS: 42 and 43, respectively)) at a concentration of 66.67 nM were directed through the chip at a flow rate of 10 μL/min. Then, serially diluted recombinant human CD40-his (Acro biosystems, Cat. No. CD0-H5228, serially 2-fold diluted from 80 nM in HBS-EP⁺ buffer (supplied by Biacore)) or cynomolgus monkey CD40-his protein (Acro biosystems, Cat. No. CD0-C52H6, serially 2-fold diluted from 80 nM in HBS-EP⁺ buffer (supplied by Biacore)) was directed through the chip at a flow rate of 30 μL/min. The antigen-antibody binding kinetics was tracked for 2 min and the dissociation kinetics was tracked for 10 min. The association and dissociation curves were fitted to a 1:1 Langmuir binding model using BIAcore evaluation software. KD, Kₐ, and Kd values were determined.
For orientation: Surface plasmon resonance follows binding to a sensor surface in real time, without labels.

In assay [2] the target is T2, recombinant human CD40-his (Acro biosystems, Cat. No. CD0-H5228) (human, UniProt P25942 21-193).
T2 construct: Bought protein; also called human CD40-his protein; not shown: His tag
The description is as above.
Source text: as §1

Assay [3] deals with T1, cynomolgus monkey CD40-his protein …. Described as above. The source holds these as a separate data set.
Assay [4] deals with T2, recombinant human CD40-his (Acro …). Described as above. This is another data set of the same source.
The next assay deals with T3, human CD40-Fc protein (human, biotinylated (sites not given) in the capture ELISA and the benchmark blocking ELISA; not biotinylated in the ligand blocking ELISA).
T3 construct: also called biotinylated human CD40-Fc
Kind of assay: competitive ELISA (self-competition): BM2 (selicrelumab) coated as competitor, soluble BM2 titrated and pre-mixed with biotinylated human CD40-Fc 0.23 nM, streptavidin-HRP, OD(450-630). As to the method: The ability of the anti-CD40 antibody of the present application to block the binding of the benchmark to human CD40 was determined by competitive ELISA. Briefly, BM2 antibody was immobilized on a 96-well micro plates at 1 μg/mL in PBS, 100 µL/well, and incubated overnight at 4° C. The next day, the plate was washed once with a washing buffer before a blocking buffer (PBST containing 5% w/v of skim milk) was added. The plate was then incubated at 37° C. for 2 h for blocking. During the blocking of the 96-well plate, the anti-CD40 antibody of the present application or the benchmark was serially 5-fold diluted from 66.7 nM with a biotinylated human CD40-Fc protein (amino acid residues 21-193 of SEQ ID NO: 30 linked to the N terminus of amino acid residues 99-330 of SEQ ID NO: 28, dissolved in PBST containing 2.5% w/v of skim milk at a concentration of 0.23 nM) and then incubated at room temperature for 40 min. After the plate was washed 4 times, the antibody/biotinylated human CD40-Fc mixture was added at 100 μL/well to the plate coated with BM2. The plate was incubated at 37° C. for 40 min and again washed 4 times with the washing buffer. […] The absorbance was read on a microplate reader using the dual wavelength mode (TMB detection wavelength: 450 nm, reference wavelength: 630 nm). […] Data were analyzed using Graphpad Prism software, and IC₅₀ values were obtained.
For orientation: In an ELISA, binding on a coated surface is turned into a signal by an enzyme label.

B1: mouse anti-CD40 monoclonal antibody C1H1 (antibody, V domains shown)
VH: EVKLVESGGGLVKPGASLKLSCAASGFTFSNYGISWVRQTSDKRLEWVASISSGGDNTYYPDNVKGRFTISRENAKNTLYLQMSSLKSEDTALYYCARAGEKAMDYWGQGTSVTVSS
VL: DIVLTQSPVTLSVTPGDSVSLSCRASQTINNNLHWYQQKSHESPRLLIKYASQSISGIPSRFSGSGSGTDFTLSINSVETEDFGIYFCQQFSSWPLTFGAGTKLELK
notes: Parent mouse antibody from a hybridoma; the mouse constant regions are not; also called Mouse C1H1
Take B1: the Kd in assay [1] amounted to 0.852 nM; in assay [2] it was 0.684 nM; in assay [3], 0.377 nM; in assay [4], 0.428 nM. Moreover, the koff in assay [1] stood at 0.00118 s⁻¹; in assay [2], 0.00123 s⁻¹; in assay [3], 0.000863 s⁻¹; in assay [4], 0.000897 s⁻¹. In addition, the kon was 1.39e+06 M⁻¹ s⁻¹ in assay [1], 1.79e+06 M⁻¹ s⁻¹ in assay [2], 2.29e+06 M⁻¹ s⁻¹ in assay [3] and 2.1e+06 M⁻¹ s⁻¹ in assay [4].

B2: BM2 (selicrelumab) (antibody, human IgG2, kappa, V domains shown)
VH: not shown
VL: DIQMTQSPSSVSASVGDRVTITCRASQGIYSWLAWYQQKPGKAPNLLIYTASTLQSGVPSRFSGSGSGTDFTLTISSLQPEDFATYYCQQANIFPLTFGGGTKVEIKR
notes: Benchmark antibody, prepared in-house; also called CD40-BM2; benchmark
Take B2: the IC50 with human CD40-Fc protein was determined as 0.529 nM.
